In paper PMC9988990:

How the values were obtained:
Test in all cases: SEC; Superose 6 10/300 in 10 mM Tris, 100 mM NaCl, pH 8.0, after StrepTactin affinity purification; peak of the trimeric ectodomain
[1] = biological target: recombinant gorilla GII FV Env ectodomain, wild type (simian foamy virus, gorilla (genotype II))
[2] = biological target: recombinant gorilla GII FV Env ectodomain variant mut1 (K342A/R343A) (simian foamy virus, gorilla (genotype II))
[3] = biological target: recombinant gorilla GII FV Env ectodomain variant mut2 (R356A/R369A) (simian foamy virus, gorilla (genotype II))

With “recombinant gorilla GII FV Env ectodomain, wild type (domain or fragment)” as the substance, how does the stoichiometry N [1] read?
The stoichiometry N was 3.

With “recombinant gorilla GII FV Env ectodomain variant mut1 (K342A/R343A) (domain or fragment)” as the substance, how does the stoichiometry N [2] read?
Its stoichiometry N is 3.

Which stoichiometry N [3] does the source give for “recombinant gorilla GII FV Env ectodomain variant mut2 (R356A/R369A) (domain or fragment)” here?
The stoichiometry N was 3.
